Reference: article PMC12865225 (Clinical and Translational Science, 2026)
Several values for one entry are separate records, joined by “and”; a condition that tells them apart may be missing. Equal values may be shown once.

What was measured:
[1] = molecular target: T1, OATP1B3 (Homo sapiens, UniProt Q9NPD5); set-up: method as in PMID 23571415; conditions: 10 μM in vitro; cited from earlier work
T1 construct: expressed in transfected cells; host or cells: HEK293 (recombinant baculovirus-mediated transduction)
T1 sequence (Q9NPD5 1-702): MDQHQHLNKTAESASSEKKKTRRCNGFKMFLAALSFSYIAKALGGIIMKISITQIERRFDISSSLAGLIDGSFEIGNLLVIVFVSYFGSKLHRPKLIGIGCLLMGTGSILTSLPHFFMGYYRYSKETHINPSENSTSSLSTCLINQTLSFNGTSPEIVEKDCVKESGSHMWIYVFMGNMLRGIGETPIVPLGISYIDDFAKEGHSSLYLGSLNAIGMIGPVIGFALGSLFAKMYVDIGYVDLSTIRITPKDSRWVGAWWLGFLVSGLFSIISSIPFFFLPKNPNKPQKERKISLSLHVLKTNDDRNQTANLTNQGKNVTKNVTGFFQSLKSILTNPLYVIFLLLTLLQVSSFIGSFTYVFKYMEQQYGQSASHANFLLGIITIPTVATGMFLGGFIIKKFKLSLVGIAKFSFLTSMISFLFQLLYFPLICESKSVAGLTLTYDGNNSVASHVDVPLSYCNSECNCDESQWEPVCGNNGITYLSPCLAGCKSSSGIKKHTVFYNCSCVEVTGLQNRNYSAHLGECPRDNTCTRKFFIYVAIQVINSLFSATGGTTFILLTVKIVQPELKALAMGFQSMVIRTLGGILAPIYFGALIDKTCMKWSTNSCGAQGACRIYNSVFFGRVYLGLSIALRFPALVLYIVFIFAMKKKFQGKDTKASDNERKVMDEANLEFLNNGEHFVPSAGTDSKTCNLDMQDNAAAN

[2] = molecular target: T2, OATP1B1 (Homo sapiens, UniProt Q9Y6L6); set-up: method as in PMID 23571415; conditions: 10 μM in vitro; cited from earlier work
T2 construct: expressed in transfected cells; host or cells: HEK293 (recombinant baculovirus-mediated transduction)
T2 sequence (Q9Y6L6 1-691): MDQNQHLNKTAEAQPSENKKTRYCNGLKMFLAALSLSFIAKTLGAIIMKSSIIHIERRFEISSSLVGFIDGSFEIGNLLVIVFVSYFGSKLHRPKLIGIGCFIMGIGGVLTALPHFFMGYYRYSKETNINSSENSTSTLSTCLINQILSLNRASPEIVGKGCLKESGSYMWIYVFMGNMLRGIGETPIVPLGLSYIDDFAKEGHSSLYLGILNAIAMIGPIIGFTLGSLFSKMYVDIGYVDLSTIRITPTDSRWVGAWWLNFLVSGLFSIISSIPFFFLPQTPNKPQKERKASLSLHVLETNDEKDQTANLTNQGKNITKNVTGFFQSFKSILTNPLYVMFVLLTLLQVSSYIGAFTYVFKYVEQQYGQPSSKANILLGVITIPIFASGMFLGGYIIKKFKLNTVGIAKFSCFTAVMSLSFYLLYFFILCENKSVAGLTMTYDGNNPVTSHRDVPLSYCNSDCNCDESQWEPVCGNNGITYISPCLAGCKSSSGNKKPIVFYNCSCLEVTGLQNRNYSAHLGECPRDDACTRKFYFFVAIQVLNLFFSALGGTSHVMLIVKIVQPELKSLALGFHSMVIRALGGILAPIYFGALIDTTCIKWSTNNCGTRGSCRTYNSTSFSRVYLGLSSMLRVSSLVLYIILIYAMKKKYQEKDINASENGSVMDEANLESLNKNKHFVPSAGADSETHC

[3] = substrate: Cc1onc(-c2c(Cl)cccc2Cl)c1C(=O)N[C@@H]1C(=O)N2[C@@H]1SC(C)(C)[C@@H]2C(=O)O; assay: cells, lysate or membranes; conditions: other: uptake, 2 min; pH 7.4; 37.0 °C
[4] = substrate: Cc1onc(-c2c(F)cccc2Cl)c1C(=O)N[C@@H]1C(=O)N2[C@@H]1SC(C)(C)[C@@H]2C(=O)O; assay: cells, lysate or membranes; conditions: other: uptake, 2 min; pH 7.4; 37.0 °C

In the case of `Cc1onc(-c2ccccc2Cl)c1C(=O)N[C@@H]1C(=O)N2[C@@H]1SC(C)(C)[C@@H]2C(=O)O` [cloxacillin], the “inhibition of OATP1B3 transport” value [1] is listed as “around 50%” and the “inhibition of OATP1B1 transport” value [2] is listed as “around 50%”.

B1: OAT4 (Homo sapiens) (protein)
chain: MAFSKLLEQAGGVGLFQTLQVLTFILPCLMIPSQMLLENFSAAIPGHRCWTHMLDNGSAVSTNMTPKALLTISIPPGPNQGPHQCRRFRQPQWQLLDPNATATSWSEADTEPCVDGWVYDRSVFTSTIVAKWDLVCSSQGLKPLSQSIFMSGILVGSFIWGLLSYRFGRKPMLSWCCLQLAVAGTSTIFAPTFVIYCGLRFVAAFGMAGIFLSSLTLMVEWTTTSRRAVTMTVVGCAFSAGQAALGGLAFALRDWRTLQLAASVPFFAISLISWWLPESARWLIIKGKPDQALQELRKVARINGHKEAKNLTIEVLMSSVKEEVASAKEPRSVLDLFCVPVLRWRSCAMLVVNFSLLISYYGLVFDLQSLGRDIFLLQALFGAVDFLGRATTALLLSFLGRRTIQAGSQAMAGLAILANMLVPQDLQTLRVVFAVLGKGCFGISLTCLTIYKAELFPTPVRMTADGILHTVGRLGAMMGPLILMSRQALPLLPPLLYGVISIASSLVVLFFLPETQGLPLPDTIQDLESQKSTAAQGNRQEAVTVESTSL
In the case of B1, the Km [3] is reported as 32.9 µM and the Km [4] is reported as 52.5 µM.

B2: OATP1B1 (Homo sapiens) (protein)
chain: MDQNQHLNKTAEAQPSENKKTRYCNGLKMFLAALSLSFIAKTLGAIIMKSSIIHIERRFEISSSLVGFIDGSFEIGNLLVIVFVSYFGSKLHRPKLIGIGCFIMGIGGVLTALPHFFMGYYRYSKETNINSSENSTSTLSTCLINQILSLNRASPEIVGKGCLKESGSYMWIYVFMGNMLRGIGETPIVPLGLSYIDDFAKEGHSSLYLGILNAIAMIGPIIGFTLGSLFSKMYVDIGYVDLSTIRITPTDSRWVGAWWLNFLVSGLFSIISSIPFFFLPQTPNKPQKERKASLSLHVLETNDEKDQTANLTNQGKNITKNVTGFFQSFKSILTNPLYVMFVLLTLLQVSSYIGAFTYVFKYVEQQYGQPSSKANILLGVITIPIFASGMFLGGYIIKKFKLNTVGIAKFSCFTAVMSLSFYLLYFFILCENKSVAGLTMTYDGNNPVTSHRDVPLSYCNSDCNCDESQWEPVCGNNGITYISPCLAGCKSSSGNKKPIVFYNCSCLEVTGLQNRNYSAHLGECPRDDACTRKFYFFVAIQVLNLFFSALGGTSHVMLIVKIVQPELKSLALGFHSMVIRALGGILAPIYFGALIDTTCIKWSTNNCGTRGSCRTYNSTSFSRVYLGLSSMLRVSSLVLYIILIYAMKKKYQEKDINASENGSVMDEANLESLNKNKHFVPSAGADSETHC
For B2, the Km [3] was 3.22 µM and 3 µM and the Km [4] was 10.4 µM.

B3: OAT3 (Homo sapiens) (protein)
chain: MTFSEILDRVGSMGHFQFLHVAILGLPILNMANHNLLQIFTAATPVHHCRPPHNASTGPWVLPMGPNGKPERCLRFVHPPNASLPNDTQRAMEPCLDGWVYNSTKDSIVTEWDLVCNSNKLKEMAQSIFMAGILIGGLVLGDLSDRFGRRPILTCSYLLLAASGSGAAFSPTFPIYMVFRFLCGFGISGITLSTVILNVEWVPTRMRAIMSTALGYCYTFGQFILPGLAYAIPQWRWLQLTVSIPFFVFFLSSWWTPESIRWLVLSGKSSKALKILRRVAVFNGKKEEGERLSLEELKLNLQKEISLAKAKYTASDLFRIPMLRRMTFCLSLAWFATGFAYYSLAMGVEEFGVNLYILQIIFGGVDVPAKFITILSLSYLGRHTTQAAALLLAGGAILALTFVPLDLQTVRTVLAVFGKGCLSSSFSCLFLYTSELYPTVIRQTGMGVSNLWTRVGSMVSPLVKITGEVQPFIPNIIYGITALLGGSAALFLPETLNQPLPETIEDLENWSLRAKKPKQEPEVEKASQRIPLQPHGPGLGSS
In the case of B3, the Km [3] is reported as 22.4 µM and the Km [4] is reported as 27.0 µM.

B4: OATP2B1 (Homo sapiens) (protein)
chain: MGPRIGPAGEVPQVPDKETKATMGTENTPGGKASPDPQDVRPSVFHNIKLFVLCHSLLQLAQLMISGYLKSSISTVEKRFGLSSQTSGLLASFNEVGNTALIVFVSYFGSRVHRPRMIGYGAILVALAGLLMTLPHFISEPYRYDNTSPEDMPQDFKASLCLPTTSAPASAPSNGNCSSYTETQHLSVVGIMFVAQTLLGVGGVPIQPFGISYIDDFAHNSNSPLYLGILFAVTMMGPGLAFGLGSLMLRLYVDINQMPEGGISLTIKDPRWVGAWWLGFLIAAGAVALAAIPYFFFPKEMPKEKRELQFRRKVLAVTDSPARKGKDSPSKQSPGESTKKQDGLVQIAPNLTVIQFIKVFPRVLLQTLRHPIFLLVVLSQVCLSSMAAGMATFLPKFLERQFSITASYANLLIGCLSFPSVIVGIVVGGVLVKRLHLGPVGCGALCLLGMLLCLFFSLPLFFIGCSSHQIAGITHQTSAHPGLELSPSCMEACSCPLDGFNPVCDPSTRVEYITPCHAGCSSWVVQDALDNSQVFYTNCSCVVEGNPVLAGSCDSTCSHLVVPFLLLVSLGSALACLTHTPSFMLILRGVKKEDKTLAVGIQFMFLRILAWMPSPVIHGSAIDTTCVHWALSCGRRAVCRYYNNDLLRNRFIGLQFFFKTGSVICFALVLAVLRQQDKEARTKESRSSPAVEQQLLVSGPGKKPEDSRV
With B4 the Km [3] was 34.7 µM and the Km [4] was 41.6 µM.
